{
  "source": "patent US20230242902A1",
  "about": "“A HIGHLY ERROR-PRONE […] R[…] FOR TARGETED CONTINUOUS EVOLUTION IN VIVO” (The Regents of the University of California, priority 2017, published 2023)",
  "molecules": {"B1": {"name": "WT: wild-type Kluyveromyces lactis DNA polymerase TP-DNAP2, SEQ ID NO:13 (protein, listed as Kluyveromyces lactis)", "chain": "MNDELAFLNSQIDDYSDDIEFLRTEVFRINRYSKSIYSLMKNSSKEAIKETIEFNKYGQEIHSKIKEKEISLIEAIKLMEKKYKYLRSLNKTKDKSKKKKIHTKDIETLKTIYKTKADFDIRNFKNAETFTYENYSLLIPSEKELIDLIPEIEEDYSYYFYVSLTITGPTIFGGVTRKVPIIDTYGDINKDFYNKIKENITKVLDRVPFYEEKESEIICKKVLITLTVNKWESIDKWYKNVKSKSKKFKDFTLFLASDTSKNCVQQCVEYLGGKWNTNYSLEKMIPQQKIVTYIPLLMDIQYVQSMEDLISDFDEPNTDCKNIARLLKWNGHMGVITKIDKDVKINRIQRKRIIDVENKEVKEVFFDIESFSDETKHQIPYLICWSYLGELYYRTGKNCIKEFVEEILSYNVDIILYAWYGSGYDYQHVLPYMKSKCIKDKYIIKNNMITYGELYYENAIIYLKDPYLFILTSLDKASKAFNVINKGEFPHSIIHSWEDLNKILPNWVKIQKRMIEYKDDNKLNIYYKNIEIFENDRNYNTILENAIEYCKVDVLAMEKVWIKFKKLLEKNLNITVSVKTFTLSQLSMKIMESKLPKYVKLYVPTLEEYSKIRNAIYGGRVISKNGIYEENIVYADVVSLYPSAMKLLKHSYGKPKLVDYIDFEKHGIYRVTLLNKHDQEPKNYLNFVPRRINRKLTWEWFKIHEGWYHTYDLIIAKSEGFDIYCHEGFEYPEKDYIFNDFIDTLYSMKETHTACSCEEQPCPIRMVAKIALNGGGYGKFVQKPIDKEIYIVKRDVVAGECDKLQENENGEICIGKRLVKRPLFYNLDSENYDKMIIEKEDEPIYSTQCGISILSASRYRLYKLCKQFENIDIIYSDTDSIFVKQKSVDWELFKSKCGSELGQLDSTIDDTKNAIISKMYIGGAKMYAFEYLNNKNKLITKLHCKGVPNYMLSLNQFKYLMESPDNTIAYKFEIIRRKLVNVITKDLIKDIKQT"}, "B2": {"name": "S370Q: TP-DNAP2 variant (protein, listed as Kluyveromyces lactis)", "chain": "B1 chain with S370Q"}, "B3": {"name": "Y424Q: TP-DNAP2 variant (protein, listed as Kluyveromyces lactis)", "chain": "B1 chain with Y424Q"}, "B4": {"name": "TP-DNAP1-4-2: TP-DNAP1 variant (L477V, L640Y, I777K, W814N), encoded by SEQ ID NO:11 (protein, listed as Kluyveromyces lactis)", "chain": "MDYKDKALNDLRNVYADFDSLPLDFRQILIKDRATLLQKEDVEKKILERQEDAKKYAEYLKQSEIPERISLPNIKRHKGVSISFEETSEDMVLEPRPFIFDGLNIRCFRRETIFSLKNKILNMVKESSSFKNVSRQSVSFMYFKIFNKGKVIASTKSVNIYEDKIDERLEDLCNNFDDVLKKIIDVTYGYESLFVSETYSYVIFYAKSIYFPQPRCVNNWGNNIPNILTFDSFKLFTANKNNVSCIKQCSRFLWQKDFNTLEEMIEYKNGNICIVTPQLHINDVRDIKSFNDIRLYSESPIKTFSVIDNTITYLFYFKEHLGVIFNITKSRHDRRVTKFSPLSKFSDVKNITVCFDIESYFDPEKESNQVNIPFICCASIIYNKVIGNIVDFEGRDCVAQMIEYVVDICGELNISSVELIAHNGGGYDFHYILSSMYNPAAIKNILIRNNSFISFNFAHDGVKFSVKDSYSFLLCSVANASKAFLNEETFKKTDFPHHDLKTADDLYKVYKEWSSVNTEINHVVEKEKLLITSEHIVNFTKNDKSKTLIEWSKDYCRNDVLVLSKVWLEFKNAVEDIFNCELVDQTMTLAGLSYKLFQANMPFDVELRHPNKEDYFNMREALIGGRCISVNGIYKDVLCYDVKSLYPASMAFYDQPYGSFKRVSSRPKDELGIYYVRVTPNRNNKSNFFPIRSHNKITYNNFEESTYIAWYTNVDIDIGLSEGHNIEYIPFDSYGNIGYSWSKKGKIFEKYIKDVLYKLKIKYEKQNNKVKRNVIKKIMNSLWGKFAQKWVNFEYFIKSEDDIDFESEEAYKINDTDFMLIKKIKESTYSSKPIQNGVFTLSWARYHMKSIWDAGAKEGAECIYSDTDSIFVHKEHFKKNAKFMLNGLKVPIIGSEVGQLELECEFDKLLCAGKKQYMGFYTYFQDGKPCIKEKKRFKGIPSNYIIPELYAHLLSGADKEAKIQFLKFRREWGSVKGYIENKTVKAT"}, "B5": {"name": "w.t.: wild-type Kluyveromyces lactis DNA polymerase TP-DNAP1, SEQ ID NO:1 (protein, listed as Kluyveromyces lactis)", "chain": "B4 chain with V477L, Y640L, K777I, N814W"}},
  "key": {"p1-encoded leu2*": {"test_system": "p1-encoded leu2*", "experiment": "p1 leu2* fluctuation tests in AR-Y304 (p1 mutation rate reporter strain, mutual orthogonality)", "format": "cell-based, S. cerevisiae", "conditions": "for change in p1 mutation rate by TP-DNAP2: AR-Y304, noncognate polymerase in trans", "description": "Strains for testing mutual orthogonality were generated by transforming a panel of CEN6/ARS4 vectors encoding TP-DNAP1 or TP-DNAP2 variants into two base strains, AR-Y304 and GA-Y021. AR-Y304 (Ravikumar et al., 2014, Nature Chemical Biology, 10:175-177) contains recombinant p1 encoding mKate2, URA3 and leu2* without disturbing the native TP-DNAP1 ORF. Similarly, GA-Y021 encodes recombinant p2 that replaces ORF1 with mKate2, URA3 and leu2* without disturbing the native TP-DNAP2 ORF.\nTo precisely measure p1 and p2 per-base substitution mutation rates, several modifications were made to the small-scale protocol. First, 36 replicates were performed for reconfirmation of candidate TP-DNAP2 mutators, and 48 replicates for genomic and mutual orthogonality experiments. Titers were also determined for each strain after spot plating by pooling the residual volume from 4 replicates and plating dilutions on YPD. The expected number of LEU2 functional mutants (m) was determined by the Ma-Sandri-Sarkar maximum likelihood estimator (as calculated by the FALCOR tool and corrected for partial plating (Foster, 2006, Methods Enzymol, 409:195-213; Sarkar et al., 1992, Genetica, 85:173-179; Hall et al., 2009, Bioinformatics, 25:1564-1565). The mean mKate2 fluorescence was determined from 50,000 event counts on Attune™ NxT Flow Cytometer and converted to p2 copy number by using a calibration curve. To determine per-base substitution rates, the corrected m was normalized to the average cell titer, the p2 copy number, and the target size for functional leu2* reversion (2.33 bp). 95% confidence intervals were similarly scaled.\nTo test whether the replication mechanisms of p1 and p2 are mutually orthogonal in vivo, p1 and p2 mutation rates were measured in the presence of a panel of TP-DNAP1 and TP-DNAP2 variants with varying mutation rates. Changes in p1 or p2 mutation rate induced by TP-DNAP variants would therefore signal a degree of cross-replication between TP-DNAP1/p1 and TP-DNAP2/p2, if any. A panel of six polymerases was introduced on CEN6/ARS4 vectors into two separate base strains, AR-Y304 (p1 mutation rate reporter strain) and GA-Y021 (p2 mutation rate reporter strain), encoding mKate2, URA3, and leu2* on either p1 or p2, respectively. Included in this panel were TP-DNAP1^WT and two error-prone TP-DNAP1 variants found in previous screens: TP-DNAP1^1777K, L900S and TP-DNAP1^L477V, L640Y, I777K, W814N. Also included were TP-DNAP2^WT and the error-prone TP-DNAP2^S370Q and TP-DNAP2^Y424Q variants found in this work. In AR-Y304 and GA-Y021, both p1 and p2 still encode their native wt TP-DNAP's. Any contribution to replication by a third TP-DNAP encoded in trans is monitored by detecting changes in linear plasmid mutation rate. Importantly, these experiments afford each DNAP an opportunity to replicate its native plasmid and lose its attached TP, becoming “spent” and perhaps more likely to replicate its noncognate linear plasmid through DNAP exchange (Klassen and Meinhardt, 2007, Linear Protein-Primed Replicating Plasmids in Eukaryotic Microbes, in Microbial Linear Plasmids, pp 1 87-226. Springer, Berlin, Heidelberg). The presence of TP-DNAP1^WT or TP-DNAP2^WT in trans had no effect on their noncognate linear plasmids' mutation rate. […] Likewise, p1 mutation rate was unaltered in the presence of mutagenic TP-DNAP2^S370Q and TP-DNAP2^Y424Q, which increased p2 mutation rate by 29- and 16-fold, respectively (FIG. 9). Thus, TP-DNAP1 replicates p1 with at least 870-fold specificity over p2, while TP-DNAP2 targets p2 with at least 29-fold specificity over p1. The level of mutual orthogonality measured here is limited by the error-rates of DNAPs used, especially that of TP-DNAP2 variants."}, "genomic URA3 locus": {"test_system": "genomic URA3 locus", "experiment": "Fluctuation tests of genomically encoded URA3 in the presence of TP-DNAP2 variants (AR-Y436)", "format": "cell-based, S. cerevisiae", "conditions": "for per-base substitution rate at genomic URA3 locus: TP-DNAP2 in trans, AR-Y436, (95% C.I.); for host genomic mutation rate: error-prone TP-DNAP2 variant present", "description": "Fluctuation tests using genomically encoded URA3 were performed in the presence of TP-DNAP2 variants to determine the genomic per-base substitution rates, similarly to previously described protocols (Lang and Murray, 2008, Genetics, 178:67-82). AR-Y292 derived strains harboring the appropriate TP-DNAP2 variant encoded on a CEN6/ARS4 vector (with a HIS3 marker) were grown in liquid SC medium lacking uracil and histidine until saturation. Each strain was diluted 1:5,000 into SC medium lacking histidine and aliquoted into 48 replicates of 200 μL each. Cultures were grown for 48 hours at 30° C. to reach saturation. Saturated cultures were washed with 400 μL 0.9% NaCl and resuspended in 420 μL 0.9% NaCl. 400 μL from each replicate was spot plated on pre-dried solid SC medium lacking histidine and supplemented with 5-FOA (1 g/L). The residual 20 μL from six replicates were pooled, diluted, and plated on solid YPD medium to determine cell titers. Plates were allowed to dry before incubation at 30° C. Colonies were counted on titer plates after 2 days, and on spot plates after 5 days of growth. The expected number of mutants (m) was calculated using the MSS maximum likelihood estimator method via the FALCOR tool, and corrected for partial plating, as described above. To determine per-base substitution rates, the corrected m was normalized to the average cell titer, the URA3 copy number (1 in haploid yeast), and the target size for 5-FOA resistance via substitutions in URA3 (104 bp). 95% confidence intervals were similarly scaled.\nLike p1 replication by TP-DNAP1, p2 replication by TP-DNAP2 occurs in the cytoplasm via a protein-primed mechanism, making it likely that p2 replication is orthogonal to host genome replication. To test this, CEN6/ARS4 vectors lacking TP-DNAP2, or encoding codon optimized versions of TP-DNAP2^WT, TP-DNAP2^S370Q, or TP-DNAP2^Y424Q were transformed into AR-Y436. AR-Y436 contains wt p1 and p2, as well as an intact URA3 locus in the host genome. Genomic per-base substitution rates were determined via fluctuation tests based on the frequency of 5-FOA resistant clones arising from mutations in the genomic URA3 locus, as previously described (Ravikumar et al., 2014, Nature Chemical Biology, 10:175-177; Lang and Murray, 2008, Genetics, 178:67-82). The substitution rich spectrum of URA3-disabling mutations makes this assay ideal for detecting whether the elevated substitution rate of TP-DNAP2^S370Q or TP-DNAP2^Y424Q contributes to genomic mutation. No increase in the host genomic mutation rate was observed when error-prone variants of TP-DNAP2^S370Q and TP-DNAP2^Y424Q were present (Table 8)."}},
  "note": "Where a chain is given by its changes, count along the chain named. Numbers in names are those of the source.",
  "data": [
    {"molecule": "B1", "values": [
      {"measurement": "change in p1 mutation rate by TP-DNAP2", "setting": "p1-encoded leu2*", "value": "no effect"},
      {"measurement": "per-base substitution rate at genomic URA3 locus", "setting": "genomic URA3 locus", "value": "2.2 (1.2-3.4) ×10^−10"}
    ]},
    {"molecule": "B2", "values": [
      {"measurement": "change in p1 mutation rate by TP-DNAP2", "setting": "p1-encoded leu2*", "value": "unaltered"},
      {"measurement": "per-base substitution rate at genomic URA3 locus", "setting": "genomic URA3 locus", "value": "1.8 (1.0-2.8) ×10^−10"},
      {"measurement": "host genomic mutation rate", "setting": "genomic URA3 locus", "value": "No increase"}
    ]},
    {"molecule": "B3", "values": [
      {"measurement": "change in p1 mutation rate by TP-DNAP2", "setting": "p1-encoded leu2*", "value": "unaltered"},
      {"measurement": "per-base substitution rate at genomic URA3 locus", "setting": "genomic URA3 locus", "value": "1.8 (1.0-2.9) ×10^−10"},
      {"measurement": "host genomic mutation rate", "setting": "genomic URA3 locus", "value": "No increase"}
    ]},
    {"molecule": "B4", "values": [
      {"measurement": "fold increase of p1 mutation rate", "setting": "p1-encoded leu2*; AR-Y304, polymerase in trans", "value": 870, "unit": "fold"}
    ]},
    {"molecule": "B5", "values": [
      {"measurement": "specificity for p1 over p2", "setting": "p1-encoded leu2*", "value": "at least 870 fold"}
    ]}
  ]
}
